Key:
[1] = molecular target: T1, human 5T4ECDHis (mature protein of SEQ ID NO: 99) (human, UniProt Q13641 32-355); experiment: BLI cross-block; competitor (immobilised): IgG1-5T4-127-FEAR
T1 construct: ECD of human 5T4 (aa 1-355 of Uniprot Q13641) with C-terminal His tag; residues 1-31 are the signal peptide; also called ECD of human 5T4 with a C-terminal His tag
T1 sequence: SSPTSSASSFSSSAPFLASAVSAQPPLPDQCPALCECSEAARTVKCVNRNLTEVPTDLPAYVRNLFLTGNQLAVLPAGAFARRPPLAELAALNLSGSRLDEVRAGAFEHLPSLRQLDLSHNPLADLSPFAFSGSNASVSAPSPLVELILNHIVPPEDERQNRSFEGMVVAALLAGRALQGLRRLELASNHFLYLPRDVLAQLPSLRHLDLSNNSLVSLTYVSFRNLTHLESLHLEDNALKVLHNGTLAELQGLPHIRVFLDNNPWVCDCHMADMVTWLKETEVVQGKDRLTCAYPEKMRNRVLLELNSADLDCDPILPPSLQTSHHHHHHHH

[2] = molecular target: T1, human 5T4ECDHis (mature protein of SEQ …); experiment: BLI cross-block; competitor (immobilised): IgG1-5T4-076-FEAR
[3] = molecular target: T1, human 5T4ECDHis (mature protein of SEQ …); experiment: BLI cross-block; competitor (immobilised): IgG1-5T4-A1-F405L
[4] = molecular target: T1, human 5T4ECDHis (mature protein of SEQ …); experiment: BLI cross-block; competitor (immobilised): IgG1-5T4-H8-FEAR
[5] = molecular target: T1, human 5T4ECDHis (mature protein of SEQ …); experiment: BLI cross-block; competitor (immobilised): IgG1-5T4-106-FEAR
[6] = molecular target: T1, human 5T4ECDHis (mature protein of SEQ …); experiment: BLI cross-block; competitor (immobilised): IgG1-5T4-059-FEAR
[7] = molecular target: T1, human 5T4ECDHis (mature protein of SEQ …); experiment: BLI cross-block; competitor (immobilised): IgG1-5T4-226-FEAR
[8] = molecular target: T2, full length human 5T4 (SEQ ID NO: 1) on cells (human, UniProt Q13641 32-420); experiment: flow cytometry, HEK-293 cells transfected with human 5T4, FITC secondary [I)D]
T2 construct: Uniprot Q13641; residues 1-31 are the signal peptide; Used both for transfected HEK-293 cells and for 5T4-expressing human tumor cell lines
T2 sequence: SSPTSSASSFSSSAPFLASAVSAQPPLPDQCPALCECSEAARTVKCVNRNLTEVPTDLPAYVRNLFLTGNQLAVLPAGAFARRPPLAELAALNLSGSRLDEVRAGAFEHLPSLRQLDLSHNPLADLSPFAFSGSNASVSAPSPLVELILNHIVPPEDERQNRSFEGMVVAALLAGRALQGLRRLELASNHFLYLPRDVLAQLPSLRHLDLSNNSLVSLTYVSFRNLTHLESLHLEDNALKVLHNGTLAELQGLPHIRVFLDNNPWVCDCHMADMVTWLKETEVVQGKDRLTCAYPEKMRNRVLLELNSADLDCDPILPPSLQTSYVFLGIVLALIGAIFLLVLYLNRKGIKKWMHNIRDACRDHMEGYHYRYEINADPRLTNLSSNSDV

[9] = molecular target: T1, human 5T4ECDHis (mature protein of SEQ …); experiment: BLI cross-block; competitor (immobilised): IgG1-5T4-A3-F405L
[10] = molecular target: T1, human 5T4ECDHis (mature protein of SEQ …); experiment: BLI, antibody on anti-human IgG Fc Capture biosensor, antigen in solution
[11] = molecular target: T1, human 5T4ECDHis (mature protein of SEQ …); experiment: BLI cross-block; competitor (immobilised): IgG1-5T4-085-FEAR
[12] = molecular target: T1, human 5T4ECDHis (mature protein of SEQ …); experiment: BLI cross-block; competitor (immobilised): IgG1-5T4-207-FEAR
[13] = molecular target: T2, full length human 5T4 (SEQ ID NO: 1) on …; experiment: flow cytometry, HEK-293 cells transfected with human 5T4, PE secondary [II)E]
[14] = molecular target: T3, full length cynomolgus monkey 5T4 on transfected HEK-293 cells (cynomolgus monkey, UniProt Q4R8Y9 35-420); experiment: flow cytometry, HEK-293 cells transfected with cynomolgus monkey 5T4, PE secondary [II)E]
T3 construct: Uniprot Q4R8Y9; residues 1-34 are the signal peptide; also called cynomolgus 5T4
T3 sequence: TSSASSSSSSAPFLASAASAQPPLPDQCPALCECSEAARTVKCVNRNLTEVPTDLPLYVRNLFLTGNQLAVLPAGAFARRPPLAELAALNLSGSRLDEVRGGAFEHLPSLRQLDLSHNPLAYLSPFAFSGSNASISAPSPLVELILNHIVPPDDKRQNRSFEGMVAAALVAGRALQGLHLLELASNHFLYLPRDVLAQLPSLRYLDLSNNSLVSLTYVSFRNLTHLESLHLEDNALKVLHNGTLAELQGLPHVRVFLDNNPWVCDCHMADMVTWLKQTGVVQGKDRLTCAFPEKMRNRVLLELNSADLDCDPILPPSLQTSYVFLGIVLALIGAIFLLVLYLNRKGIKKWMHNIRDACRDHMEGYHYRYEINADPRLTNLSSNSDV

[15] = molecular target: T3, full length cynomolgus monkey 5T4 on …; experiment: flow cytometry, HEK-293 cells transfected with cynomolgus monkey 5T4, PE secondary [II)H]
[16] = molecular target: T2, full length human 5T4 (SEQ ID NO: 1) on …; experiment: flow cytometry, HeLa cells, PE secondary [II)G]
[17] = molecular target: T3, full length cynomolgus monkey 5T4 on …; experiment: flow cytometry, HEK-293 cells transfected with cynomolgus monkey 5T4, PE secondary [II)G]
[18] = molecular target: T3, full length cynomolgus monkey 5T4 on …; experiment: flow cytometry, HEK-293 cells transfected with cynomolgus monkey 5T4, PE secondary [II)I]
[19] = molecular target: T2, full length human 5T4 (SEQ ID NO: 1) on …; experiment: flow cytometry, HeLa cells, PE secondary [II)H]

B1: IgG1-5T4-H8-FEAR (antibody, V domains shown)
VH: EVQLQQSGPDLVKPGASVKISCKASGYSFTGYYMHWVKQSHGKSLEWIGRINPNNGVTLYNQKFKDKAILTVDKSSTTAYMELRSLTSEDSAVYYCARSTMITNYVMDYWGQVTSVTVSS
VL: SIVMTQTPTFLLVSAGDRVTITCKASQSVSNDVAWYQQKPGQSPTLLISYTSSRYAGVPDRFIGSGYGTDFTFTISTLQAEDLAVYFCQQDYNSPPTFGGGTKLEIK
notes: Based on 5T4 antibody H8 from Wyeth (WO 2007/106744); IgG1 with L234F, L235E, D265A, K409R (FEAR); also called IgG1-5T4-HS-FEAR; IgG1-5T4-H8-FEAR-FITC
- corrected association response [1]: -0.02 nm
- corrected association response [2]: 0 nm
- corrected association response [3]: 0.89 nm
- corrected association response [4]: 0 nm
- corrected association response [5]: -0.02 nm
- corrected association response [6]: 0.01 nm
- corrected association response [7]: -0.01 nm
- EC50 (read off the curve) [8]: ~0.1 µg/mL
- corrected association response [9]: 0.5 nm
- Kd [10]: 1.3 nM
- koff [10]: 0.00029 s⁻¹
- kon [10]: 220000 M⁻¹ s⁻¹
- corrected association response [11]: -0.01 nm
- corrected association response [12]: -0.01 nm

B2: bsIgG1-huCD3-H101G-FEALx5T4-076-FEAR (bispecific antibody)
heavy: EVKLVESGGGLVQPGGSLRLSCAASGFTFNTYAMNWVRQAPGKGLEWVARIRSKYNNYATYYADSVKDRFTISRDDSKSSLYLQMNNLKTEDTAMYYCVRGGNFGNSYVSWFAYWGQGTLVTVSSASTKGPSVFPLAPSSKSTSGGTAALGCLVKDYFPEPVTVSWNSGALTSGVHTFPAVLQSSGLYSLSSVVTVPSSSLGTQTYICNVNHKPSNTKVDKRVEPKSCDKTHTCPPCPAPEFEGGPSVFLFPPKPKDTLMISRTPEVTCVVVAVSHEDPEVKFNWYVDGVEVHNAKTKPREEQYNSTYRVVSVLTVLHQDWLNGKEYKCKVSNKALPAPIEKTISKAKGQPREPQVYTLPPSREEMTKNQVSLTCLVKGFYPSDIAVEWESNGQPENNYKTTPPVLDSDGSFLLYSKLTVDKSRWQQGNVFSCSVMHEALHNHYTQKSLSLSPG
light: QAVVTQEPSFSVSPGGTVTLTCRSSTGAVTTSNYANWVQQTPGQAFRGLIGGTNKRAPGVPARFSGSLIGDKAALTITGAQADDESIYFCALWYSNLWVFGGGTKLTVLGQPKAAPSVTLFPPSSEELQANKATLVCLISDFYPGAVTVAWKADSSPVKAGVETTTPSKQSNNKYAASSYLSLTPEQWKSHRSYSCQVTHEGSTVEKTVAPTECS
VH: QVQLVQSGAEVKKPGASVKVSCKASGYTFTSYGISWVRQAPGQGLEWMGWISAYNGNTNYAQKLQGRVTMTTDTSTRTAYMELRSLRSDDTAVYYCARDPGYFDWLYGDYWGQGTLVTVSS
VL: AIQLTQSPSSLSASVGDRVTITCRASQGISSALAWYQQKPGKAPKLLIYDASSLESGVPSRFSGSGSGTDFTLTISSLQPEDFATYYCQQFNSYPRTFGQGTKVEIK
notes: Fab-arm exchange product
- binding result [13]: binds
- EC50 (read off the curve) [14]: ~0.4 µg/mL

B3: IgG1-5T4-076-FEAR (antibody, V domains shown)
VH: B2 VH
VL: B2 VL
notes: Monospecific, bivalent human IgG1 kappa with L234F, L235E, D265A, K409R (FEAR)
- corrected association response [1]: -0.02 nm
- corrected association response [2]: -0.01 nm
- corrected association response [3]: 0.36 nm
- corrected association response [4]: -0.02 nm
- corrected association response [5]: -0.03 nm
- corrected association response [6]: 0 nm
- EC50 (read off the curve) [13]: ~0.3 µg/mL
- corrected association response [7]: 1.47 nm
- corrected association response [9]: 0 nm
- EC50 (read off the curve) [14]: ~0.008 µg/mL
- corrected association response [11]: -0.01 nm
- corrected association response [12]: 1.22 nm

B4: bsIgG1-huCD3-H101G-FEALx5T4-A1-FEAR (bispecific antibody)
heavy: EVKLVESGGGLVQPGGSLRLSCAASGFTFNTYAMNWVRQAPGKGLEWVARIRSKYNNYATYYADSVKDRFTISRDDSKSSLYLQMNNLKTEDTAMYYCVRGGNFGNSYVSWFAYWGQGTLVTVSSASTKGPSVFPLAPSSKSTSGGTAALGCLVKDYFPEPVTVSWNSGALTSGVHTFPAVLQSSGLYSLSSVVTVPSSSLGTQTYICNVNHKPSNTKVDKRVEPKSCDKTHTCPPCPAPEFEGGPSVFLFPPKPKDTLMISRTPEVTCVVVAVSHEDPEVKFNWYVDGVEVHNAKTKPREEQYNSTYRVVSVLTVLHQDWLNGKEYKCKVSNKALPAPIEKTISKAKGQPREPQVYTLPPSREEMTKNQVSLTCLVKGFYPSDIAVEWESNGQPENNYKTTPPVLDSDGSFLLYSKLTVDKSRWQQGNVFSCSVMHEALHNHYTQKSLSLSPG
light: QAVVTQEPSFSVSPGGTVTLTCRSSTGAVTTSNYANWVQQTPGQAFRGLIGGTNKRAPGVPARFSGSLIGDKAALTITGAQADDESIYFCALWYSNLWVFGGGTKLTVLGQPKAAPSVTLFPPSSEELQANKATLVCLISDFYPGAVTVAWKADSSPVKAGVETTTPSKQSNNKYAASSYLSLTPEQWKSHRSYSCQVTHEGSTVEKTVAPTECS
VH: QIQLVQSGPELKKPGETVKISCKASGYTFTNFGMNWVKQGPGEGLKWMGWINTNTGEPRYAEEFKGRFAFSLETTASTAYLQINNLKNEDTATYFCARDWDGAYFFDYWGQGTTLTVSS
VL: SIVMTQTPKFLLVSAGDRVTITCKASQSVSNDVAWYQQKPGQSPKLLINFATNRYTGVPNRFTGSGYGTDFTFTISTVQAEDLALYFCQQDYSSPWTFGGGTKLEIK
notes: Fab-arm exchange product
- binding result [15]: binds
- binding result [16]: binds

B5: IgG1-5T4-A1-F405L (antibody, V domains shown)
VH: B4 VH
VL: B4 VL
notes: Variable region of A1 of WO2007106744 in a human IgG1 backbone with F405L; also called surrogate A1 antibody
- corrected association response [1]: 0.15 nm
- corrected association response [2]: 0.04 nm
- corrected association response [3]: -0.01 nm
- corrected association response [4]: 0.64 nm
- corrected association response [5]: 0.79 nm
- corrected association response [6]: 0.96 nm
- corrected association response [7]: 1.56 nm
- corrected association response [9]: 0.69 nm
- corrected association response [11]: 0.07 nm
- corrected association response [12]: 1.29 nm

B6: bsIgG1-huCD3-H101G-FEALx5T4-127-FEAR (bispecific antibody)
heavy: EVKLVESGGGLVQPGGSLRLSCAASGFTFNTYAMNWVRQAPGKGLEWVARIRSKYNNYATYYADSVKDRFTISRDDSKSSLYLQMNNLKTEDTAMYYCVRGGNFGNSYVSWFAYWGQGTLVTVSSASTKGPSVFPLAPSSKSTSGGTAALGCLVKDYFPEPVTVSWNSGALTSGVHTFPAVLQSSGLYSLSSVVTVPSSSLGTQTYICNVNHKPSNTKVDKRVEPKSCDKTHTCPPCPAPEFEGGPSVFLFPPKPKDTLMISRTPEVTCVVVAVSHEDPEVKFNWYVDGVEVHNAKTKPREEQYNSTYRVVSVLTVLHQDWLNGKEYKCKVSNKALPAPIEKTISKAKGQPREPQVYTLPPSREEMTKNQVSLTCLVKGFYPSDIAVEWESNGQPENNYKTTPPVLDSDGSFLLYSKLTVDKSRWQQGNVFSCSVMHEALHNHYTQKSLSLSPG
light: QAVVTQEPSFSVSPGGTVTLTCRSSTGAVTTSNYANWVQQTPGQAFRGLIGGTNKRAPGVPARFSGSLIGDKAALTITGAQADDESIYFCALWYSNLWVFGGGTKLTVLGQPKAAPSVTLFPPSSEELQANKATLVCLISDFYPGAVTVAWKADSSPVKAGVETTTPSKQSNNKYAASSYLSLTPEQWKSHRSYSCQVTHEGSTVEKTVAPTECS
VH: EVQLLESRGGLVQPGGSLRLSCAASGFTFSSYAMSWVRQAPGKGLEWVSTISGSGGSTYYADSVKGRFTISRDNSKKTLYLQMNSLRAEDTAVYYCAKDWGSGSYPAEYFQHWGQGTLVTVSS
VL: EIVLTQSPATLSLSPGERATLSCRASQSVSSYLAWYQQKPGQAPRLLIYDASNRATGIPARFSGSGSGTDFTLTISSLEPEDFAVYYCQQRSNWLMYTFGQGTKLEIK
notes: Fab-arm exchange product
- EC50 (read off the curve) [17]: ~0.1 µg/mL

B7: bsIgG1-huCD3-H101G-FEALx5T4-A3-FEAR (bispecific antibody)
heavy: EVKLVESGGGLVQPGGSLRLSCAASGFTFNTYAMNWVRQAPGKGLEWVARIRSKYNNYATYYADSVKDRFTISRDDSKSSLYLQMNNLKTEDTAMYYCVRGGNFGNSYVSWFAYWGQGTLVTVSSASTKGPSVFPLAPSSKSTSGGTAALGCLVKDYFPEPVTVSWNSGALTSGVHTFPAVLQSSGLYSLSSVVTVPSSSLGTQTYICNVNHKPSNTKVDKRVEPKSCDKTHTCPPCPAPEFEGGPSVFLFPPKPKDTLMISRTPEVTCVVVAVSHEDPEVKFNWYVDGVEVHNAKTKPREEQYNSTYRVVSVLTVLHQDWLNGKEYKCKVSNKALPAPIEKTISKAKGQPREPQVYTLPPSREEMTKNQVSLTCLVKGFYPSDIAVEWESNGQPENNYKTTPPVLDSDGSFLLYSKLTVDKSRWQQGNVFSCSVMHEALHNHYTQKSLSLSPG
light: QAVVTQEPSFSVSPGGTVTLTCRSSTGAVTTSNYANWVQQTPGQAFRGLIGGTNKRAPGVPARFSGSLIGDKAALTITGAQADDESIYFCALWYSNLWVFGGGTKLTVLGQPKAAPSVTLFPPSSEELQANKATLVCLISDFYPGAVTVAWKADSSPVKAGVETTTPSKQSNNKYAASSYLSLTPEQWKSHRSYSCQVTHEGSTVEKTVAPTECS
VH: EVQLVESGGGLVQPKGSLKLSCAASGFTFNTYAMNWVRQAPGKGLEWVARIRSKSNNYATYYADSVKDRFTISRDDSQSMLYLQMNNLKTEDTAMYYCVRQWDYDVRAMNYWGQGTSVTVSS
VL: DIVMTQSHIFMSTSVGDRVSITCKASQDVDTAVAWYQQKPGQSPKLLIYWASTRLTGVPDRFTGSGSGTDFTLTISNVQSEDLADYFCQQYSSYPYTFGGGTKLEIK
notes: Fab-arm exchange product
- binding result [18]: binds
- binding result [19]: binds

B8: IgG1-5T4-A3-F405L (antibody, V domains shown)
VH: B7 VH
VL: B7 VL
notes: Variable region of A3 of WO2007106744 in a human IgG1 backbone with F405L; also called surrogate A3 antibody
- corrected association response [1]: -0.01 nm
- corrected association response [2]: 0 nm
- corrected association response [3]: 0.76 nm
- corrected association response [4]: 0.49 nm
- corrected association response [5]: 0.56 nm
- corrected association response [9]: 0.01 nm
- corrected association response [11]: -0.01 nm

B9: IgG1-5T4-A3-FEAR (antibody, V domains shown)
VH: B7 VH
VL: B7 VL
notes: Based on A3 from Wyeth; IgG1 with L234F, L235E, D265A, K409R (FEAR)
- EC50 (read off the curve) [18]: ~0.1 µg/mL
- binding result [19]: binds
